Reference: patent US20210238292A1 (VACCINEX, published 2021)
Changes are numbered by the printed parent chain.

Legend:
Human CCR8-ECD-Fc = target: T1, Human CCR8-ECD-Fc (human); test: binding to HuCCR8-ECD-moFc protein (so in the source), OD45-570nm (so in the source)
T1 construct: also called HuCCR8-ECD-Fc; huCC8-ECD-Fc
T1 chain: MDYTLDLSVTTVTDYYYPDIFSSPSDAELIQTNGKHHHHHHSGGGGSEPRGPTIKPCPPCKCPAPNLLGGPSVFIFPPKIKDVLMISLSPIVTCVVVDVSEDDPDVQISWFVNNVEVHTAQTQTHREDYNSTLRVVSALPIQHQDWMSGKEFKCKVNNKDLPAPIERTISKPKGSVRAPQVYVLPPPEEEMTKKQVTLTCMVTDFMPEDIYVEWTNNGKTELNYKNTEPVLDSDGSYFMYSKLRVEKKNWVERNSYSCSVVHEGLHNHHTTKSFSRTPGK

Cynomolgus CCR8-ECD-Fc = target: T2, Cynomolgus CCR8-ECD-Fc (cynomolgus monkey); test: binding to CyCCR8-ECD-huFc protein (so in the source), OD45-570nm (so in the source)
T2 construct: also called CyCCR8-ECD-Fc; Cynomolgus CCR8-Fc
T2 chain: T1 chain with L7P, V9M, V12M, I20S, F21L, A27G, T32R, G34D

[1] = target: T3, mouse CCR8 expressed on 293T cells (mouse, UniProt P56484 1-353); test: flow cytometry, mouseCCR8-293T cells, fold geomean over secondary alone
T3 construct: whole, on cells
T3 sequence (looked up): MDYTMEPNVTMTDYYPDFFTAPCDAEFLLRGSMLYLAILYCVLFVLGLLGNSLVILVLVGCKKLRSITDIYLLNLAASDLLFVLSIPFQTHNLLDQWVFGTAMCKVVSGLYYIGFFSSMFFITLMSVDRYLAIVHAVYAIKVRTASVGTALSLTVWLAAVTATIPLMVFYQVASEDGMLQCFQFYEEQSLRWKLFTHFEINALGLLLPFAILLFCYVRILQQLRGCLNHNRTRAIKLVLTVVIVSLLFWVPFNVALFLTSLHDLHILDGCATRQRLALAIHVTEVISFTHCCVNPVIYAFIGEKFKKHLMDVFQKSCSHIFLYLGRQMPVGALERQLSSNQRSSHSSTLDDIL

[2] = target: T4, human CCR8 (C-C chemokine receptor type 8) expressed on cells (human, UniProt P51685 1-355); test: on-cell affinity, flow cytometry on 293T cells expressing human CCR8
T4 construct: also called HuCCR8
T4 sequence (P51685 whole entry): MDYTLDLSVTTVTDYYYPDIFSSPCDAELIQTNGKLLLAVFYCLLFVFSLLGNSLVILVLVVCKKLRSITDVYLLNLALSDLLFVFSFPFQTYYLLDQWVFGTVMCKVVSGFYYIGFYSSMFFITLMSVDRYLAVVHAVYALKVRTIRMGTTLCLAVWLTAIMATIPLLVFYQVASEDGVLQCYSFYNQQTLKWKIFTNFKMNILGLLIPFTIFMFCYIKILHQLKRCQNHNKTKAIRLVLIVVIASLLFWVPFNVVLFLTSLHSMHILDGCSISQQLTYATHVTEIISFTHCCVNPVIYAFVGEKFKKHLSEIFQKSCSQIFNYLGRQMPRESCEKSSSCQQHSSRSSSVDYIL

B1: anti-CCR8-1-2 (antibody, V domains shown)
VH: QVQLVQSGAEVKKPGASVKVSCKASGYTFTSYYMHWVRQAPGQGLEWMGIINPSGGSTSYAQKFQGRVTMTRDTSTSTVYMELSSLRSEDTAVYYCARGVGNGFRFDYWGQGTLVT
VL: QSALTQPASVSGSPGQSITISCTGTSGDVGSYSLVSWYQHHPSRAPKLIIYEVNKRPSGVSDRFSGSKSGNTASLTITGLQAEDEAHYFCSSYTGNINLPVVFGGGTKLTVL
notes: Parental-1 heavy chain with a shuffled lambda light chain; Human IgG expressed in CHO cells
Human CCR8-ECD-Fc
  binding result: binds
Cynomolgus CCR8-ECD-Fc
  binding result: binds
[1]
  binding result: no binding (tested: 10 ug/ml)
[2]
  Kd: 1.06 nM
